Test results from IntAct's records for PubMed 23353789.

B1: Chromosome partition protein Smc (Bacillus subtilis), P51834 (parent)
chain: MFLKRLDVIGFKSFAERISVDFVKGVTAVVGPNGSGKSNITDAIRWVLGEQSARSLRGGKMEDIIFAGSDSRKRLNLAEVTLTLDNDDHFLPIDFHEVSVTRRVYRSGESEFLINNQPCRLKDIIDLFMDSGLGKEAFSIISQGKVEEILSSKAEDRRSIFEEAAGVLKYKTRKKKAENKLFETQDNLNRVEDILHELEGQVEPLKIQASIAKDYLEKKKELEHVEIALTAYDIEELHGKWSTLKEKVQMAKEEELAESSAISAKEAKIEDTRDKIQALDESVDELQQVLLVTSEELEKLEGRKEVLKERKKNAVQNQEQLEEAIVQFQQKETVLKEELSKQEAVFETLQAEVKQLRAQVKEKQQALSLHNENVEEKIEQLKSDYFELLNSQASIRNELQLLDDQMSQSAVTLQRLADNNEKHLQERHDISARKAACETEFARIEQEIHSQVGAYRDMQTKYEQKKRQYEKNESALYQAYQYVQQARSKKDMLETMQGDFSGFYQGVKEVLKAKERLGGIRGAVLELISTEQKYETAIEIALGASAQHVVTDDEQSARKAIQYLKQNSFGRATFLPLSVIRDRQLQSRDAETAARHSSFLGVASELVTFDPAYRSVIQNLLGTVLITEDLKGANELAKLLGHRYRIVTLEGDVVNPGGSMTGGAVKKKNNSLLGRSRELEDVTKRLAEMEEKTALLEQEVKTLKHSIQDMEKKLADLRETGEGLRLKQQDVKGQLYELQVAEKNINTHLELYDQEKSALSESDEERKVRKRKLEEELSAVSEKMKQLEEDIDRLTKQKQTQSSTKESLSNELTELKIAAAKKEQACKGEEDNLARLKKELTETELALKEAKEDLSFLTSEMSSSTSGEEKLEEAAKHKLNDKTKTIELIALRRDQRIKLQHGLDTYERELKEMKRLYKQKTTLLKDEEVKLGRMEVELDNLLQYLREEYSLSFEGAKEKYQLETDPEEARKRVKLIKLAIEELGTVNLGSIDEFERVNERYKFLSEQKEDLTEAKNTLFQVIEEMDEEMTKRFNDTFVQIRSHFDQVFRSLFGGGRAELRLTDPNDLLHSGVEIIAQPPGKKLQNLNLLSGGERALTAIALLFSILKVRPVPFCVLDEVEAALDEANVFRFAQYLKKYSSDTQFIVITHRKGTMEEADVLYGVTMQESGVSKVISVKLEETKEFVQ
partner: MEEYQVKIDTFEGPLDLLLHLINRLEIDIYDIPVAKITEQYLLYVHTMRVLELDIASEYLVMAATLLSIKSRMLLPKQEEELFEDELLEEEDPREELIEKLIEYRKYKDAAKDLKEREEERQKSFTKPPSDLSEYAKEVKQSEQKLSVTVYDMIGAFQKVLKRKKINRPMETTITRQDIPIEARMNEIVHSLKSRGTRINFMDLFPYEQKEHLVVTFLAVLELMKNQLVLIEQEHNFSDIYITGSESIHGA
B2: Segregation and condensation protein A (Bacillus subtilis), P35154 (parent)
chain: B1 partner
partner: B1 chain

Variants of: B1
Details: with scpa_bacsu scpA
V1176E was tested, and the “effect of a mutation on the interaction” value was “disrupting interaction strength”.
With I1174E the “effect of a mutation on the interaction” value was “disrupting interaction strength”.

Variants of: B1
Details: with scpa_bacsu scpA
Remark: another data set of the same source
V1021E was tested, and the “effect of a mutation on the interaction” value was “disrupting interaction strength”.
Y170E was tested, and the “effect of a mutation on the interaction” value was “decreasing interaction strength”.

Variants of: B2
Details: with smc_bacsu smc
With MEEYQVKIDTFEGPLDLLLHLINRLEIDIYDIPVAKITEQYLLYVHTMRVLELDIASEYLVMAATLESIKSRMLLPKQEEELFEDELLEEEDPREELIEKLIEYRKYKDAAKDLKEREEERQKSFTKPPSDLSEYAKEVKQSEQKLSVTVYDMIGAFQKVLKRKKINRPMETTITRQDIPIEARMNEIVHSLKSRGTRINFMDLFPYEQKEHLVVTFLAVLELMKNQLVLIEQEHNFSDIYITGSESIHGA [L67E] the “effect of a mutation on the interaction” value was “disrupting interaction strength”.
With MEEYQVKIDTFEGPLDLLLHLINRLEIDIYDIPVAKITEQYLLYVHTMRVLELDIASEYLVMAATLLSIESRMLLPKQEEELFEDELLEEEDPREELIEKLIEYRKYKDAAKDLKEREEERQKSFTKPPSDLSEYAKEVKQSEQKLSVTVYDMIGAFQKVLKRKKINRPMETTITRQDIPIEARMNEIVHSLKSRGTRINFMDLFPYEQKEHLVVTFLAVLELMKNQLVLIEQEHNFSDIYITGSESIHGA [K70E] the “effect of a mutation on the interaction” value was “disrupting interaction strength”.
In the case of MEEYQVKIDTFEGPLDLLLHLINRLEIDIYDIPVAKITEQYLLYVHTMRVLELDIASEYKVMAATLLSIKSRMLLPKQEEELFEDELLEEEDPREELIEKLIEYRKYKDAAKDLKEREEERQKSFTKPPSDLSEYAKEVKQSEQKLSVTVYDMIGAFQKVLKRKKINRPMETTITRQDIPIEARMNEIVHSLKSRGTRINFMDLFPYEQKEHLVVTFLAVLELMKNQLVLIEQEHNFSDIYITGSESIHGA [L60K], the “effect of a mutation on the interaction” value is reported as “disrupting interaction strength”.
